Reference: patent US11654198B2, “Application of combination of polyethylene glycol and local anesthetic in non-narcotic analgesia” (JENKEM TECHNOLOGY CO., LTD. (TIANJIN), priority 2016, dated 2023)

Tests used:
SD rats [1] = experiment: Motor block four-level score (Example 30); assay type: in vivo, rat; parameters: key to motor function score: 1 = normal motor function to 4 = complete loss with gait defect; conditions: for motor function score: direct injection around sciatic nerve, conjugate 10/11/12 at 32/24/48 mg/kg (as bupivacaine); for effect on motor function of SD rats: conjugate 10 at 32 mg/kg, conjugate 11 at 24 mg/kg; for motor scores at different time points versus vehicle group: direct injection, conjugate 10/11/12 at 32/24/48 mg/kg
Procedure: Male Sprague-Dawley rats are used in the study, about 230-250 g when accepted, and acclimated for at least 7 days prior to the experiment. Two rats are raised in each cage and fed freely with feed and water. The environmental conditions of the breeding room are 23±2° C., and the relative humidity is 40% to 70%, alternating 12 hours of light and dark. […] The qualified rats are randomly divided into 4 groups, 4 rats in each group, which are labeled as groups G1, G2, G3, and G4, respectively. Administration by direct injection in the sciatic nerve is adopted, and with the rat's back facing up, the drug is injected around the right sciatic nerve trunk between the right hip and the right thigh.
Motor block (four-level score): The exercise condition of each group of rats is evaluated by the motor block four-level scoring method. The scoring criteria are: paws can be dorsiflexed, stretched, valgus and other normal exercises, scored by 1 point; paws can be dorsiflexed, bendable or after the adduction, although the paws can be stretched after the adduction, the stretching ability is weakened, scored by 2 points; the paw can perform dorsiflexion, but no longer has the ability to stretch, scored by 3 points; the paws completely lose the ability of dorsiflexion, curling and stretching, and the rats produce a gait defect, scored by 4 points. The time point for measuring the motor block score is before administration, and 0.5 h, 1 h, 2 h, 4 h, 6 h, 8 h, 12 h, and 24 h after administration.

SD rats [2] = experiment: Hot plate paw withdrawal time, rat plantar incision model (Example 31); assay type: in vivo; conditions: for time the analgesic effect can reach: conjugate 10/11/12 at 32/24/48 mg/kg
Procedure: After SD rats inhale anesthesia (isoflurane), an incision of about 1 cm in length from the proximal end of the pelma to the toe is made: after the skin and fascia are cut, the plantar muscle is picked up with an ophthalmic forceps and cut longitudinally (maintaining the starting and ending point and attachment of muscles); pressing is carried out for hemostasis, physiological saline and test drugs are injected into the muscles of animal's legs, and then the pain threshold detection is performed by the hot plate method. Within 24 hours after the model is successful, the rats develop significant hyperalgesia. Qualified rats are randomly divided into 5 groups, 6 rats in each group, which are labeled as groups G1, G2, G3, G4 and G5, respectively. The plantar subcutaneous injection method for administration is used, and the grouping information of the experimental animals is shown in Table 8.
Sensory block (hot plate paw withdrawal time): The sensory block of the rat is examined by a hot plate method, and the hot plate is heated to (56±1)° C., and one of the hind paws of the rat is placed on the hot plate, the other hind paw is in the laboratory room temperature condition, and the tested paw withdrawal time is observed and recorded. The average value of two to three times measured is recorded as a pain threshold. In order to avoid the damage of the experimental animal body, if the rat has no paw withdrawal in the hot plate experiment for more than 15 s, the paws should be removed from the hot plate, and the experimental result is recorded as 15 s. The time point for determining the paw withdrawal time of the hot plate is before administration, and 0.5 h, 1 h, 2 h, 4 h, 6 h, 8 h, 12 h, and 24 h after administration.

SD rats [3] = experiment: Motor block four-level score, rat sciatica model (SNL) (Example 32); assay type: in vivo; parameters: key to motor function score: 1 = normal paw movement to 4 = complete loss, gait defect; conditions: for motor function score: bupivacaine 8, conjugate 10/11/12 32/24/48 mg/kg; for effect on motor function of SD rats: conjugate 10/11/12 at 32/24/48 mg/kg
Description: Intervertebral disc compression (SNL): This model is a pathological form that simulates clinical disc herniation. The specific method is to remove the autogenous caudal intervertebral disc tissue (annulus fibrosus and nucleus pulposus) form the rats and place the caudal intervertebral disc tissue between the proximal nerve root of the L5 dorsal root ganglion and the lower vertebral body to directly compress the L5 nerve root, wherein damage to the L5 nerve root or dorsal root ganglion should be avoided during the operation. 3 to 15 days after the model is successful, rats develop significant hyperalgesia, so the administration time we chose is between 3 days and 15 days.
Qualified rats are randomly divided into 5 groups, 6 rats in each group, which are labeled as groups G1, G2, G3, G4 and G5, respectively. Administration by intramuscular injection around sciatic nerve is adopted, and the grouping information of the experimental animals is shown in Table 11.
Motor block (four-level score): The exercise condition of each group of rats is evaluated by the motor block four-level scoring method. The scoring criteria are: paws can be dorsiflexed, stretched, valgus and other normal exercises, scored by 1 point; paws can be dorsiflexed, bendable or after the adduction, although the paws can be stretched, the stretching ability is weakened, scored by 2 points; the paw can perform dorsiflexion, but no longer has the ability to stretch, scored by 3 points; the paw completely loses the ability of dorsiflexion, curling and stretching, and the rats produce a gait defect, scored by 4 points. The time point for determining the withdrawal time of the hot plate is before administration, and 0.5 h, 1 h, 2 h, 4 h, 6 h, 8 h, 12 h, and 24 h after administration.

experimental animals = experiment: Duration of non-anesthetic analgesic effect (statement in background); assay type: in vivo; conditions: single dose
[4] = 0 h (after surgery, before administration), bupivacaine 8, conjugate 10/11/12 32/24/48 mg/kg
[5] = 0.5 h after plantar subcutaneous injection, bupivacaine 8, conjugate 10/11/12 32/24/48 mg/kg
[6] = 1 h after plantar subcutaneous injection, bupivacaine 8, conjugate 10/11/12 32/24/48 mg/kg
[7] = 2 h after plantar subcutaneous injection, bupivacaine 8, conjugate 10/11/12 32/24/48 mg/kg
[8] = 4 h after plantar subcutaneous injection, bupivacaine 8, conjugate 10/11/12 32/24/48 mg/kg
[9] = 6 h after plantar subcutaneous injection, bupivacaine 8, conjugate 10/11/12 32/24/48 mg/kg
[10] = 8 h after plantar subcutaneous injection, bupivacaine 8, conjugate 10/11/12 32/24/48 mg/kg
[11] = 12 h after plantar subcutaneous injection, bupivacaine 8, conjugate 10/11/12 32/24/48 mg/kg
[12] = 24 h after plantar subcutaneous injection, bupivacaine 8, conjugate 10/11/12 32/24/48 mg/kg
[13] = base value before surgery, bupivacaine 8, conjugate 10/11/12 32/24/48 mg/kg (as bupivacaine)
[14] = bupivacaine 8, conjugate 10/11/12 32/24/48 mg/kg

| Compound | motor function score (SD rats [1]; 0 h (before administration)) | motor function score (SD rats [1]; 0.5 h) | hot plate paw withdrawal time (SD rats [2]; [4]) [s] | hot plate paw withdrawal time (SD rats [2]; [5]) [s] | hot plate paw withdrawal time (SD rats [2]; [6]) [s] | hot plate paw withdrawal time (SD rats [2]; [7]) [s] | hot plate paw withdrawal time (SD rats [2]; [8]) [s] | hot plate paw withdrawal time (SD rats [2]; [9]) [s] | hot plate paw withdrawal time (SD rats [2]; [10]) [s] | hot plate paw withdrawal time (SD rats [2]; [11]) [s] | hot plate paw withdrawal time (SD rats [2]; [12]) [s] | hot plate paw withdrawal time (SD rats [2]; [13]) [s] | motor function score (SD rats [3]; 0.5 h) | motor function score (SD rats [3]; 1 h) | motor function score (SD rats [3]; 2 h) | motor function score (SD rats [3]; 4 h) | motor function score (SD rats [3]; 6 h) | motor function score (SD rats [3]; 8 h) | motor function score (SD rats [3]; 12 h) | motor function score (SD rats [3]; 24 h) | further results |
| --- | --- | --- | --- | --- | --- | --- | --- | --- | --- | --- | --- | --- | --- | --- | --- | --- | --- | --- | --- | --- | --- |
| 8-Arm-PEG-Bupivacaine, 20K [bupivacaine conjugate 10] | 1 ± 0 | 1 ± 0 | 1.41 | 6.52 | 7.91 | 6.21 | 6.79 | 7.42 | 7.43 | 2.10 | 1.32 | 5.20 | 1 ± 0 | 1.75 ± 0.5 | 1.75 ± 0.5 | 1.75 ± 0.5 | 1.75 ± 0.5 | 1.75 ± 0.5 | 1 ± 0 | 1 ± 0 | motor function score (SD rats [1]; 1 h): 1.75 ± 0.5; motor function score (SD rats [1]; 2 h): 1.75 ± 0.5; motor function score (SD rats [1]; 4 h): 1.75 ± 0.5; motor function score (SD rats [1]; 6 h): 1.75 ± 0.5; motor function score (SD rats [1]; 8 h): 1.75 ± 0.5; motor function score (SD rats [1]; 12 h): 1 ± 0; motor function score (SD rats [1]; 24 h): 1 ± 0; effect on motor function of SD rats (SD rats [1]): does not affect the motor function; motor scores at different time points versus vehicle group (SD rats [1]): not significantly different; time the analgesic effect can reach (SD rats [2]): 8 h; effect on motor function of SD rats (SD rats [3]): does not affect the motor function |
| 8-Arm-PEG-Bupivacaine, 20K [bupivacaine conjugate 11] | 1 ± 0 | 1 ± 0 | 1.26 | 7.43 | 8.49 | 9.10 | 7.91 | 8.65 | 2.19 | 1.89 | 1.56 | 4.97 | 1 ± 0 | 1 ± 0 | 1 ± 0 | 1 ± 0 | 1 ± 0 | 1 ± 0 | 1 ± 0 | 1 ± 0 | motor function score (SD rats [1]; 1 h): 1 ± 0; motor function score (SD rats [1]; 2 h): 1 ± 0; motor function score (SD rats [1]; 4 h): 1 ± 0; motor function score (SD rats [1]; 6 h): 1 ± 0; motor function score (SD rats [1]; 8 h): 1 ± 0; motor function score (SD rats [1]; 12 h): 1 ± 0; motor function score (SD rats [1]; 24 h): 1 ± 0; effect on motor function of SD rats (SD rats [1]): does not affect the motor function; motor scores at different time points versus vehicle group (SD rats [1]): not significantly different; time after administration at which hot plate paw withdrawal time is significantly higher than vehicle group (SD rats [2]; [14]): ≤ 6 h; time the analgesic effect can reach (SD rats [2]): ≥ 6 h; effect on motor function of SD rats (SD rats [3]): does not affect the motor function |
| CCCCN1CCCCC1C(=O)Nc1c(C)cccc1C (centres unmarked) [bupivacaine] | – | – | 1.02 | 7.21 | 6.91 | 1.30 | 1.51 | 1.32 | 2.41 | 1.41 | 1.45 | 4.70 | 1 ± 0 | 1.75 ± 0.5 | 1.75 ± 0.5 | 1.75 ± 0.5 | 1.75 ± 0.5 | 1.75 ± 0.5 | 1 ± 0 | 1 ± 0 | time the non-anesthetic analgesic effect is maintained (experimental animals): at most 1 hour |
| 8-Arm-PEG-Bupivacaine, 20K [bupivacaine conjugate 12] | 1 ± 0 | 1 ± 0 | 1.89 | 8.13 | 7.21 | 6.12 | 2.49 | 2.34 | 2.10 | 1.92 | 1.76 | 5.81 | 1 ± 0 | 1 ± 0 | 1 ± 0 | 1 ± 0 | 1 ± 0 | 1 ± 0 | 1 ± 0 | 1 ± 0 | motor function score (SD rats [1]; 1 h): 1 ± 0; motor function score (SD rats [1]; 2 h): 1 ± 0; motor function score (SD rats [1]; 4 h): 1 ± 0; motor function score (SD rats [1]; 6 h): 1 ± 0; motor function score (SD rats [1]; 8 h): 1 ± 0; motor function score (SD rats [1]; 12 h): 1 ± 0; motor function score (SD rats [1]; 24 h): 1 ± 0; motor scores at different time points versus vehicle group (SD rats [1]): not significantly different; time after administration at which hot plate paw withdrawal time is significantly higher than vehicle group (SD rats [2]; [14]): ≤ 2 h; time the analgesic effect can reach (SD rats [2]): 2 h; effect on motor function of SD rats (SD rats [3]): does not affect the motor function |
